Laboratory results: US20250288684A1, “ACETAL-TYPE RELEASABLE POLYOXYETHYLENE DERIVATIVE, PRODUCTION METHOD THEREOF AND ACETAL-TYPE RELEASABLE POLYOXYETHYLENE CONJUGATE” (NOF CORPORATION, priority 2022, published 2025)

How the values were obtained:
[1] = Degradability test: decomposition in deuterium oxide buffer solution, NMR measurement; assay type: physicochemical; details: pH 7.4; sodium phosphate deuterium oxide buffer solution, pD 7.4, 40° C.; β-alanine adduct amount by NMR; read-out: half-life (t½) (converted)
Method: Each of the compounds of Formulas (50), (51), (52) and (53) (20 mg) was dissolved in sodium phosphate deuterium oxide buffer solution (0.7 mL) having a pD of 7.4, and then placed in a thermostatic bath at 40° C., and NMR measurement was performed at a random timing. […] A half-life (t½) was calculated from a formula (in which ln represents a logarithm with the Napier's number as a base, and λ represents a product of an exponent of the Napier's number in an approximation formula of the graph and −1) based on the approximation formula.
Each of the compounds of Formulas (75), (76), (77) and (78) (20 mg) was dissolved in sodium phosphate deuterium oxide buffer solution (0.7 mL) having a pD of 7.4, and then placed in a thermostatic bath at 40° C., and NMR measurement was performed at a random timing.

[2] = Evaluation of stability of PEGylated insulin in buffer solutions with various pH values (HPLC); assay type: physicochemical; details: pH 6.0, 7.0, 8.0 and 9.0 buffer solutions, 25° C.
Method: With 100 μL of 100 mM phosphate buffer solution (pH 6.0), 100 μL of 100 mM phosphate buffer solution (pH 7.0), 100 μL of 100 mM ammonium formate buffer solution (pH 8.0), or 100 μL of 100 mM ammonium formate buffer solution (pH 9.0), 100 μL of 0.5 mg/mL PEG(20k)-OCO-NH-insulin prepared in Comparative Example 4 or 100 μL of 0.5 mg/mL 2MPEG(20k)-OCO-NH-insulin prepared in Example 26 was mixed, and then allowed to stand at 25° C. and subjected to HPLC analysis at a random timing.

Row | Compound | half-life at 28.6 mg/mL [1] [days] | change in amount of PEGylated insulin over time [2]
1 | COCCOc1cccc(C2OCc3cc(COC(=O)NCCC(=O)O)ccc3O2)c1 (centres unmarked) [Formula (53)] | 231 | –
2 | PEG(20k)-OCO-NH-insulin: insulin reacted with SUNBRIGHT MENP-20T [reference compound] | – | no decrease
